Results published in patent US20240190931A1, “MAGEC2 IMMUNOGENIC PEPTIDES, BINDING PROTEINS RECOGNIZING MAGEC2 IMMUNOGENIC PEPTIDES, AND USES THEREOF” (TScan Therapeutics, Inc., priority 2021, published 2024).
“Also recorded” adds a separate entry of the source.

Experiments:
[1] = target: T1, MAGEC2 peptide on HLA-B*07:02 (human); assay: killing
T1 peptide: RAREFMELL

[2] = system: VGP peptide-pulsed cells; assay: IFP+ reporter-based cell killing of VGP peptide-pulsed HEK293T cells; parameters: species or system human; conditions: HEK293T cells pulsed with serial dilutions of VGP peptide, co-cultured with TCR-transduced T cells; FIG. 9A
Description: (§1) To characterize the recognition of the identified peptide by a TCR, wild-type HEK293 cells were pulsed with serial dilutions of peptide and co-cultured with T cells transduced with the TCR of interest. After 24 hours, cultures were mixed by pipetting, and centrifuged at 2,000 rpm for 2 minutes. Supernatants were collected and measured for IFNγ secretion using a human IFNγ 3rd generation single-plex assay (Protein Simple) following the manufacturer's instructions. Alternatively, monoallelic HEK293T cells expressing a granzyme-activated fluorescent reporter were pulsed with serial dilutions of peptide and co-cultured with T cells transduced with an individual TCR of interest. After 4 hours, the cultures were harvested by pipetting and fluorescence of the reporter was detected using a CytoFLEX™ S instrument (Beckman Coulter).
Data shown in FIGS. 7-9 were generated according to similar materials, methods, and experiments as described above.

[3] = system: RAR peptide-pulsed cells; assay: T cell recognition assay: IFNγ release on co-culture with RAR peptide-pulsed wild-type HEK293T cells; assay type: cell-based, human; conditions: wild-type HEK293T cells pulsed with serial dilutions of RAR peptide, co-cultured with TCR-transduced T cells; FIG. 4A
Description: as §1

[4] = target: T2, RAR peptide-HLA-B*07:02 (pMHC) complex (Homo sapiens, UniProt P01889+Q9UBF1); assay: Peptide pulse-based cytotoxicity assay with granzyme-activated fluorescent reporter in HLA-B*07:02 monoallelic HEK293T cells; assay type: cell-based; conditions: HLA-B*07:02 monoallelic HEK293T reporter cells pulsed with RAR peptide, co-cultured with TCR-transduced T cells; FIG. 4B
T2 construct: expressed in transfected cells; host or cells: MHC-null HEK293T cells engineered to express HLA-B*07:02 (monoallelic reporter cells)
Description: as §1

[5] = system: melanoma cells that express MAGEC2; assay: Reactivity to melanoma cell lines measured by IFNγ release; assay type: cell-based, human
Description: To detect reactivity to melanoma cell lines, wild-type melanoma cell lines were seeded at 6×10^4 cells in a 96-well flat bottom plate and rested for 16 hours at 37° C. in 5% CO2. On the following day, T cells were thawed, washed in complete RPMI-1640 medium, and added to the wells for an effector to target ratio of 1:1. The co-culture was incubated for 16 hours. Cells were then harvested by pipetting, transferred to V-bottom 96-well plates, and centrifuged at 2,000 rpm for 2 minutes. The supernatant was collected for IFNγ measurement using a human IFNγ 3rd generation single-plex assay (Protein Simple). For flow cytometry analysis (Cytoflex S™ instrument, Beckman Coulter), cell pellets were washed with FACS buffer (PBS, 0.5% BSA, 2 mM EDTA) and stained for activation-induced markers, including PE-conjugated anti-CD137 (Miltenyi), AF647-conjugated anti-CD69 (Biolegend), and BV421-conjugated anti-CD8 (BioLegend).
Melanoma lines were purchased from ATCC (Manassas, VA) and HEK293T cells were originally from Takara Bio (Shiga, Japan). All media were supplemented with 10% FBS and 1% penicillin and incubated at 37° C. in 5% CO2. A101D, A2058, HT144, and HEK293T cells were maintained in complete DMEM. SK-MEL-5 was cultured in complete EMEM, whereas HMCB required complete EMEM with 10 mM HEPES. […]

[6] = system: MAGEC2-expressing melanoma cell lines; assay: Incucyte cytotoxicity assay on NucLight Red melanoma cell lines; assay type: cell-based, human; conditions: E:T ratio of 2:1; versus MHC-mismatched control TCR or no T cells; FIG. 6
Description: Melanoma lines were purchased from ATCC (Manassas, VA) and HEK293T cells were originally from Takara Bio (Shiga, Japan). All media were supplemented with 10% FBS and 1% penicillin and incubated at 37° C. in 5% CO2. A101D, A2058, HT144, and HEK293T cells were maintained in complete DMEM. SK-MEL-5 was cultured in complete EMEM, whereas HMCB required complete EMEM with 10 mM HEPES. Untransduced cancer cells were maintained in preparation for the T cell recognition assay, and 10^6 cells of each cell line were introduced with Incucyte® NucLight™ Red lentivirus reagent (Sartorius, Gottingen, Germany). Positively-labeled cells were selected using 1.5 ug/mL of puromycin over 72 hours.
Melanoma cells selected for Incucyte® NucLight™ analysis were seeded into 96-well flat bottom plates (Corning, Flintshire, UK) at 10^4 cells, except for HMCB cells, which were plated at 5×10^3 cells. On the same day, T cells were thawed, washed in complete RPMI-1640, and allowed to rest overnight in medium with 50 U/mL IL-2 (PeproTech), 5 ng/mL IL-7, and 5 ng/mL IL-15 (R&D Systems). All cells were rested for 16 hours at 37° C. in 5% CO2. A two-fold serial dilution of the T cells was performed for the effector to target ratios, with the highest E:T at 4:1, and the lowest at 1:2. […] Imaging utilized a 4× objective lens and data were analyzed using the Incucyte® Basic Software. […]

[7] = target: T3, MAGEC2 peptide on HLA-A*24:02 (human); assay: killing
T3 peptide: VGPDHFCVF

B1: MAGEC2 TCR 8-3 (TCR, V domains shown)
Valpha: ILNVEQSPQSLHVQEGDSTNFTCSFPSSNFYALHWYRWETAKSPEALFVMTLNGDEKKKGRISATLNTKEGYSYLYIKGSQPEDSATYLCASGSGGATNKLIFGTGTLLAVQP
Vbeta: GEEVAQTPKHLVRGEGQKAKLYCAPIKGHSYVFWYQQVLKNEFKFLISFQNENVFDETGMPKERFSAKCLPNSPCSLEIQATKLEDSAVYFCASSQSRSLRGTEAFFGQGTRLTVV
[1]
  binding result: recognises

B2: TCR 4-58: T cell receptor (TRAV10/TRAJ39; TRBV27) recognizing MAGEC2 VGP peptide presented by HLA-A*24:02; tested in transduced T cells (protein)
TCR alpha: RGNGKNQVEQSPQSLIILEGKNCTLQCNYTVSPFSNLRWYKQDTGRGPVSLTIMTFSENTKSNGRYTATLDADTKQSSLHITASQLSDSASYICVVSARNAGNMLTFGGGTRLMVKPHIQNPEPAVYQLKDPRSQDSTLCLFTDFDSQINVPKTMESGTFITDKCVLDMKAMDSKSNGAIAWSNQTSFTCQDIFKETNATYPSSDVPCDATLTEKSFETDMNLNFQNLLVMVLRILLLKVAGFNLLMTLRLWSS
TCR beta: EAQVTQNPRYLITVTGKKLTVTCSQNMNHEYMSWYRQDPGLGLRQIYYSMNVEVTDKGDVPEGYKVSRKEKRNFPLILESPSPNQTSLYFCACASSFGTSGRGEQFFGPGTRLTVLEDLRNVTPPKVSLFEPSKAEIANKQKATLVCLARGFFPDHVELSWWVNGKEVHSGVCTDPQAYKESNYSYCLSSRLRVSATFWHNPRNHFRCQVQFHGLSEEDKWPEGSPKPVTQNISAEAWGRADCGITSASYQQGVLSATILYEILLGKATLYAVLVSTLVVMAMVKRKNS
[2]
  Recognition and killing of VGP peptide-pulsed cells (IFP+ reporter-based cell killing): recognizes and kills VGP peptide-pulsed cells

B3: TCR 8-3: T cell receptor (TRAV24*01/TRAJ32*02; TRBV16*01/TRBJ1-1*01) recognizing MAGEC2 RAR peptide presented by HLA-B*07:02; tested in transduced T cells (protein)
TCR alpha: ILNVEQSPQSLHVQEGDSTNFTCSFPSSNFYALHWYRWETAKSPEALFVMTLNGDEKKKGRISATLNTKEGYSYLYIKGSQPEDSATYLCASGSGGATNKLIFGTGTLLAVQPNIQNPEPAVYQLKDPRSQDSTLCLFTDFDSQINVPKTMESGTFITDKCVLDMKAMDSKSNGAIAWSNQTSFTCQDIFKETNATYPSSDVPCDATLTEKSFETDMNLNFQNLLVMVLRILLLKVAGFNLLMTLRLWSS
TCR beta: GEEVAQTPKHLVRGEGQKAKLYCAPIKGHSYVFWYQQVLKNEFKFLISFQNENVFDETGMPKERFSAKCLPNSPCSLEIQATKLEDSAVYFCASSQSRSLRGTEAFFGQGTRLTVVEDLRNVTPPKVSLFEPSKAEIANKQKATLVCLARGFFPDHVELSWWVNGKEVHSGVCTDPQAYKESNYSYCLSSRLRVSATFWHNPRNHFRCQVQFHGLSEEDKWPEGSPKPVTQNISAEAWGRADCGITSASYQQGVLSATILYEILLGKATLYAVLVSTLVVMAMVKRKNS
[3]
  Recognition of RAR peptide-pulsed cells (IFNγ release): recognizes
[4]
  Killing of RAR peptide-pulsed cells (granzyme-activated fluorescent reporter): demonstrated to kill cells expressing RAR peptide-HLA-B*07:02 (pMHC) complex; also recorded: kills
[5]; IFNγ release versus MAGEC2 expression, FIG. 5E
  Relation of TCR reactivity to MAGEC2 expression of melanoma cell lines: corresponds to MAGEC2 expression
[5]; melanoma cell lines, E:T 1:1, 16 hours, FIG. 5D
  Recognition of melanoma cell lines (IFNγ release): recognizes melanoma cells that express MAGEC2
[6]
  Killing of MAGEC2-expressing melanoma cell lines (red object count over time): demonstrated to kill cancer cells that express MAGEC2; also recorded: kills MAGEC2-expressing melanoma cell lines

B4: MAGEC2 TCR 4-58 (TCR, V domains shown)
Valpha: KNQVEQSPQSLIILEGKNCTLQCNYTVSPFSNLRWYKQDTGRGPVSLTIMTFSENTKSNGRYTATLDADTKQSSLHITASQLSDSASYICVVSARNAGNMLTFGGGTRLMVKP
Vbeta: EAQVTQNPRYLITVTGKKLTVTCSQNMNHEYMSWYRQDPGLGLRQIYYSMNVEVTDKGDVPEGYKVSRKEKRNFPLILESPSPNQTSLYFCACASSFGTSGRGEQFFGPGTRLTVL
[7]
  binding result: recognises
